Key:
LAIR1 on reporter cells [1] = target: T1, LAIR1 on reporter cells (UniProt Q6GTX8 22-165, limits assumed); experiment: flow cytometry, reporter cells [cont'd]
T1 sequence (looked up): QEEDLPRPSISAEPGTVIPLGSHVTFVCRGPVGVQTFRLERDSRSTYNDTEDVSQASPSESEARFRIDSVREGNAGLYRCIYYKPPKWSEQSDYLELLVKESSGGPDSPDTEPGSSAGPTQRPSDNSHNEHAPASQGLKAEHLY

LILRB2-His antigen [2] = target: T2, LILRB2-His antigen (UniProt Q8N423 22-460, limits assumed); experiment: indirect ELISA, coated LILRB2-His
T2 construct: Coated on ELISA plates; also used for phage panning; also called LILRB2 antigen; not shown: His tag
Experimental: ELISA binding EC of LILRB2 antibodies. The ELISA binding EC₅₀ of these 24 antibodies were measured by indirect ELISA. […] After incubation, HRP-conjugated goat anti-human Fc secondary antibody was incubated with the plates. The TMB substrate was added for color development and measurement of absorbance at 450 nm.

[3] = target: T3, LILRB2 chimeric receptor on LILRB2 reporter cells (extracellular domain of LILRB2 fused with … (UniProt Q8N423 22-460)); experiment: flow cytometry, LILRB2 reporter cells
T3 construct: extracellular domain;domain: transmembrane/intracellular domains; associates with DAP12; also called LILRB2-expressing reporter cells
Description: (§1) FIGS. 1A-C. Screening specific monoclonal antibodies for LILRB2. […] Binding of monoclonal antibodies was screened using flow cytometer on LILRB2 reporter cells. Bound antibodies were detected with Allophycocyanin (APC)-labeled goat anti-human IgG secondary antibody. (FIG. 1B) Quantification of binding ability of monoclonal antibodies to LILRB2 reporter cells.
(§2) Screening specific monoclonal antibodies for LILRB2. The inventors employed a stable reporter cell system to detect the binding ability of selected monoclonal antibodies to LILRB2. In this chimeric receptor reporter system, the extracellular domain (ECD) of LILRB2 is fused with transmembrane/intracellular domains of PILRb that associates with the adaptor protein DAP12 containing an immunoreceptor tyrosine-based activation motif. 27 monoclonal antibodies were screened. The LILRB2 reporter cells were incubated with selected monoclonal antibody, then labeled with (APC) goat anti-human IgG secondary antibody. […] The inventors generated LILRBAs and LILRBs reporters stably transduced with each receptor's extracellular domain (ECD).

LAIR1 on reporter cells [4] = target: T1, LAIR1 on reporter cells; experiment: flow cytometry, reporter cells
[5] = target: T4, full extracellular domain (ECD) of LILRB2 fused to Fc fragment of mouse IgG2a (human; mouse, UniProt Q8N423 22-460); experiment: ELISA, coated human LILRB2 ECD-mIgG2a Fc [panel A]
T4 construct: extracellular domain; also called B2-ECD; wildtype B2-ECD; not shown: Fc fragment of mouse IgG2a
Description: FIGS. 19A-B. ELISA binding measurement of antibodies to human and non-human primate (cynomolgus monkey, cyno) LILRB2 recombinantly produced in HEK293 cells. (FIG. 19A) ELISA binding to human LILRB2. (FIG. 19B) ELISA binding to cyno-LILRB2. The fusion proteins of the extracellular domain (ECD) of human LILRB2 or NHP-LILRB2 with Fe of mouse IgG2a were used to coat ELISA plates and antibodies were titrated in different concentrations as indicated in the graph.

LILRA6 = target: T5, LILRA6; experiment: flow cytometry, reporter cells [cont'd]
T5 construct: also called LILRA6 reporter cells

LILRA5 = target: T6, LILRA5; experiment: flow cytometry, reporter cells [cont'd]
T6 construct: also called LILRA5 reporter cells

LILRB2-His antigen [6] = target: T2, LILRB2-His antigen; experiment: ELISA titration on LILRB2 and LILRA1 antigens
[7] = target: T7, LILRB2 (antigen in solution, Octet RED 96) (UniProt Q8N423 22-460, limits assumed); experiment: BLI (Octet RED 96), antibody on protein A biosensor, LILRB2 in solution
T7 construct: also called LILRB2 solution
Experimental: Affinity measurement of blocking antibodies. Affinities of the 5 blocking antibodies were measured on Octet RED 96 system.

LAIR1 on reporter cells [8] = target: T1, LAIR1 on reporter cells; experiment: flow cytometry, reporter cells; remark: listed apart in the source
Experimental: Binding of LILRB2 monoclonal antibodies was detected using flow cytometry on LILRAs, LILRBs or LAIR1-expressing reporter cells using a Allophycocyanin (APC)-labeled goat anti-human IgG Fc specific secondary antibody. Non: non-stained reporter cells. NEG: cells incubated only with secondary Ab. POS: cells incubated with commercial antibody conjugated with APC or AF647 for the respective LIL or LAIR-1 receptors. The number indicates mean fluorescence intensity (MFI) of APC or AF647.

[9] = target: T3, LILRB2 chimeric receptor on LILRB2 …; experiment: flow cytometry on LILRB2 reporter cells, APC anti-human IgG
Description: as §1, §2

T6 sequence (chain, as listed by the source limits assumed): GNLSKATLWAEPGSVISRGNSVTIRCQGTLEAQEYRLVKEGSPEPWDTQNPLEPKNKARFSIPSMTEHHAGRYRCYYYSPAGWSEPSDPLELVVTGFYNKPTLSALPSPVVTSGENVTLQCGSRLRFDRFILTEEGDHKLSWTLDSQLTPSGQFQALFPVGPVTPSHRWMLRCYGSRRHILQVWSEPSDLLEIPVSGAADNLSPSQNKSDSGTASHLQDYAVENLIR
T5 sequence (chain, as listed by the source limits assumed): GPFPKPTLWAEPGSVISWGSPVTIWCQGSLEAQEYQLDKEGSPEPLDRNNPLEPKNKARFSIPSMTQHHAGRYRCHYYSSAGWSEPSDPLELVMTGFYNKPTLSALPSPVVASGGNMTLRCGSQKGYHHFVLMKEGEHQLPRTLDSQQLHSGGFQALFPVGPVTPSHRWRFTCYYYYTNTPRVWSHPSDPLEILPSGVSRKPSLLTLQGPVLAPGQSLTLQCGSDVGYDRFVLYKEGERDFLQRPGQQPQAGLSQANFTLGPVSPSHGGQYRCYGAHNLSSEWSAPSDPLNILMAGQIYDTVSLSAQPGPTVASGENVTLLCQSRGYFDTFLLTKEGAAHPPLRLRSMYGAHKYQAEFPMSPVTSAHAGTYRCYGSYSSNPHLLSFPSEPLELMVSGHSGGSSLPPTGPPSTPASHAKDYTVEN

B1: B2-25 (antibody, V domains shown)
VH: QVQLVESGGGLVKPGGSLRLSCAASGFTFSDHYMSWIRQAPGKGLEWVSYITTTGSTMSYADSVKGRFTISRDNSKNSLHLQLSSLRAEDTAVYYCARDSIHVDGAFDIWGQGTMVTVSS
VL: SYELTQPPSVSVAPGQTARITCGGNNIGSKSVHWYQQKPGQAPVLVVYDDSDRPSGIPERFSGSNSGNTATLTISRVEAGDEADYYCQVWDSSSDHWVFGGGTKLTVL
notes: also called B2-25_HC; B2-25_LC
- binding result (LAIR1 on reporter cells [1]): no binding
- EC50 (LILRB2-His antigen [2]): 1.73 nM
- % of cells anti-hIgG APC+ [3]: 39.2%

B2: B2-24 (antibody, V domains shown)
VH: QVQLVESGGGLVKPGGSLRLSCAASGFTFSDYYMSWIRQAPGKGLEWVSYISSSSSYTNYADSVKGRFTISRDNAKNSLYLQMNSLRAEDTAVYYCARVGDLDAFDIWGQGTMVTVSS
VL: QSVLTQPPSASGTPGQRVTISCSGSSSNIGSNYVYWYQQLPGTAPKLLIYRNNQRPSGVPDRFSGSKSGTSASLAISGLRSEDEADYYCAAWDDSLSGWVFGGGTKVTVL
notes: also called B2-24_HC; B2-24_LC
- EC50 (LILRB2-His antigen [2]): 5.06 nM
- % of cells anti-hIgG APC+ [3]: 13%
- binding result (LAIR1 on reporter cells [4]): no binding

B3: HCB2-27 (antibody, V domains shown)
VH: QVQLVESGGGLVKPGGSLRLSCAASGFTFANAWMGWVRQAPGKGLQWVSHIKPSSSGGRTTDYDAPVKGRFTISRDDSNDTVYLQMNSLKTEDTGVYYCVTGRRVAKTFDFWGQGTTVSVSS
VL: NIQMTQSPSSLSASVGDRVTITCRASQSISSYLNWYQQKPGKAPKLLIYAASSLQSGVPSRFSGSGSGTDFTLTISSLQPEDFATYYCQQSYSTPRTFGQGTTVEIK
notes: also called HCB2-27_HC; HCB2-27_LC
- binding result [5]: binds

B4: HCB2-15 (antibody, V domains shown)
VH: QVQMVESGGDLVQPGQSLRLSCVTSGFPFADYAMSWFRQAPGQRPEWIGYIKSKTRDGTTKYAESLRGRFTISRDDSKSIAYLQMNNLKREDTAVYYCALGGAAALWGPGTLVSVSS
VL: QPPSVSGAPGQRVTISCAGSSSNIGAGYGVHWYQHLPGTAPKLLIYGDNNRPSGVPYRFSGSKSGTSASLAITGLQAEDEADYFCQSYDSSLGVGVFGGGTKVTVL
notes: also called HCB2-15_HC; HCB2-15_LC
- binding result [5]: binds

B5: B2-12 (antibody, V domains shown)
VH: QVQLVQSGDEVKKAGASVRVSCKASGYTFPDNGISWVRQAPGHGLEWMGWINVDTGYTHYAQRVQDRVVMTTDTSTNTLHMTLRSLTTDDTAVYYCAREIEGVWTAWGQGTLVIVSS
VL: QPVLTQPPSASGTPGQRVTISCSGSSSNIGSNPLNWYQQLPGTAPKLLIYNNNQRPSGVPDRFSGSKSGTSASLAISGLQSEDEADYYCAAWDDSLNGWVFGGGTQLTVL
notes: also called B2-12_HC; B2-12_LC
- binding result (LILRA6): no binding
- binding result (LAIR1 on reporter cells [1]): no binding
- binding result (LILRA5): no binding
- EC50 (LILRB2-His antigen [2]): 0.444 nM
- % of cells anti-hIgG APC+ [3]: 25.5%
- fold potency of binding to LILRB2 against binding to LILRA1 (LILRB2-His antigen [6]): > 100 fold

B6: HCB2-5 (antibody, V domains shown)
VH: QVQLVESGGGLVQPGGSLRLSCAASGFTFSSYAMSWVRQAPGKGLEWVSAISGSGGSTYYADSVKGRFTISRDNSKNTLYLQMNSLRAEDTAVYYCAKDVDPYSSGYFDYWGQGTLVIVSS
VL: AIQMTQSPSSVSASVGDRVTITCRASQGIGSWLAWYQQKPGKAPKLLISVASSLQSGVPSRFSGSGSGTDFTLTISSLQPEDFATYYCQQANSFPLTFGGGTTVEIK
notes: also called FCB2-5; HCB2-5_HC
- Kd [7]: 10.2 nM
- koff [7]: 0.00324 s⁻¹
- kon [7]: 317000 M⁻¹ s⁻¹
- binding result (LAIR1 on reporter cells [8]): no binding

B7: HCB2-24 (antibody, V domains shown)
VH: QMQLEQSGAEVKKPGSSVKVSCKASGGTFSSYAISWVRQAPGQGLEWMGGIIPIFGTANYAQKFQGRVTITADKSTSTAYMELSSLRSEDTAVYYCARAGGIHYYDSLDYWGQGTLVTVSS
VL: not shown
notes: also called HCB2-24_HC; HCB2-24_LC
- binding result [5]: binds

B8: HCB2-18 (antibody, V domains shown)
VH: QVQLVQSGAEVKKPGSSVKVSCKASGGTFSSYAISWVRQAPGQGLEWMGGIIPIFGTANYAQKFQGRVTITADESTSTAYMELSSLRSEDTAVYYCARGGYQPLDYWGQGTLVIVSS
VL: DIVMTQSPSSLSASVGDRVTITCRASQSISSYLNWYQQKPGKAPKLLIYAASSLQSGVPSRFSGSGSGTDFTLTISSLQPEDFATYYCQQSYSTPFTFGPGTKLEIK
notes: also called HCB2-18_HC; HCB2-18_LC
- binding result [5]: binds

B9: B2-10 (antibody, V domains shown)
VH: QVQLVQSGGGLVQPGGSLRLSCAASGFTFSSYAMSWVRQAPGKGLEWVSTINDSGGSTYYADSVKGRFTISRDNSKNTLYLQMNSLRAEDTAVYYCAKDHITIFGVAPFDYWGLGTLVTVSS
VL: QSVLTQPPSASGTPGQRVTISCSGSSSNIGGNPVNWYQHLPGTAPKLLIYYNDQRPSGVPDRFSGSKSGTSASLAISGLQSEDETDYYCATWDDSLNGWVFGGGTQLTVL
notes: also called B2-10_HC; B2-10_LC
- EC50 (LILRB2-His antigen [2]): 0.575 nM
- % of cells anti-hIgG APC+ [3]: 35.1%
- fold potency of binding to LILRB2 against binding to LILRA1 (LILRB2-His antigen [6]): > 100 fold

B10: B2-8 (antibody, V domains shown)
VH: QVQLVQSGAEVKKPGSSVKVSCKASGGTFSSYAISWVRQAPGQGLEWMGGIIPIFGTANYAQKFQGRVTITADESTSTAYMELSSLRSEDTAVYYCARVAVADTFFDYWGQGTLVTVSS
VL: QPVLTQPASVSGSPGQSITISCTGTSSDVGGYNYVSWYQQHPGKAPKLMIYDVSNRPSGVSNRFSGSKSGNTASLTISGLQAEDEADYYCSSYTSSSTPYVFGTGTKVTVL
notes: also called B2-8_HC; B2-8_LC
- EC50 (LILRB2-His antigen [2]): 0.557 nM
- % of cells anti-hIgG APC+ [3]: 24.8%
- binding result (LAIR1 on reporter cells [4]): no binding

B11: HCB2-10 (antibody, V domains shown)
VH: QVQLVESGGGLVQPGGSLRLSCAASGFTFSNYAMSWVRQAPGKGLEWVSAISGSSISTYYADSVKGRFTISRDNSKNTLYLQMNSLRAEDTAVYYCASSGFGSFDYWGQGTLVTVSS
VL: QPPSVSAAPRQRVTISCSGSSSNIGDNSVNWYQQLPGKAPKLLIYLDDLLPSGVSGRFSGSKSGTSASLVISGLQSEDEADYYCATWDDSLNGVVFGGGTKVTVL
notes: also called HCB2-10_HC; HCB2-10_LC
- Kd [7]: 8.67 nM
- koff [7]: 0.0061 s⁻¹
- kon [7]: 703000 M⁻¹ s⁻¹
- binding result (LAIR1 on reporter cells [8]): no binding

B12: HCB2-17 (antibody, V domains shown)
VH: QVQLVQSGAEVKKPGSSVKVSCKASGGTFSSYAISWVRQAPGQGLEWMGGIIPIFGTANYAQKFQGRVTITADESTSTAYMELSSLRSEDTAVYYCAISSGYYYNPFDYWGQGTLVTVSS
VL: not shown
notes: also called HCB2-17_HC; HCB2-17_LC
- binding result [5]: binds

B13: B2-18 (antibody, V domains shown)
VH: QVQLVQSGAEVKKPGASVKVSCKASGYTFTRYGFSWVRQAPGQGLEWMGWISGYNGNTKYAQKFQGRVTMTTDTSTSTAYMELRSLTSNDTAVYYCARDRGSGYLEYWGPGTLVTVSS
VL: DVQMTQSPSSLSASVGERVTLTCRASQGIYSSLAWYQQKPGKAPKLLLYGTSQLERGVPSRFSGSGSGTDYTLTISSLQPEDSATYYCQQHYNLPITFGQGTRLEIK
notes: also called B2-18_HC; B2-18_LC
- binding result (LILRA6): no binding
- binding result (LAIR1 on reporter cells [1]): no binding
- binding result (LILRA5): no binding
- EC50 (LILRB2-His antigen [2]): 0.355 nM
- % of cells anti-hIgG APC+ [3]: 75.6%
- fold potency of binding to LILRB2 against binding to LILRA1 (LILRB2-His antigen [6]): > 100 fold
- percent of LILRB2 reporter cells labeled [9]: > 95%

Source: patent US20230068663A1 (University of Texas, published 2023)
